Substrate in this data set: O=C(NCC(=O)N1CCC[C@H]1C(=O)Nc1ccc([N+](=O)[O-])cc1)OCc1ccccc1
Nature of the data set: purified protein. Type of data set: biochemical, Eurygaster integriceps. The settings on record: 25 mM ethanolamine, pH 8.5, 0.1 M NaCl, 1 mM DTT, 37 °C, abstract prints 210 ± 53 µM.

The values below come from publication PMC4592603, “Cloning, Expression, Sequence Analysis and Homology Modeling of the Prolyl Endoprotease from Eurygaster integriceps Puton” (Insects, 2014).

B1: spPEP (sunn pest prolyl endoprotease) (Eurygaster integriceps) (protein)
chain: MKKFQYPEARRDETIKETFFGIEVADPYRWLEDPDSEETKNFVDAQNSISEPYLKGCPARDKIKARLTQMLDYPKYSPPEKEGNHYFYFKNTGLQNHSVLYMQDSLDGPSKVFLDPNTFSSDGTVALTSTSFSEDGSIMGYTVSKSGSDWCTIHFRRVDTGEDYPEELKFVKFGHAAWTHDNLGVFYTRFPEVEGKSDGSETSQNRNQKIYYHKVGTPQSEDILVVELDDPEYIYTVCVSDCGRGVVILPSKFCHNNLVYFSDLSTLKDGIKGKLDVTCIVDKFEADYEFVANTGSKFVFRTNKNAHNYKLVVIDFENHSEENWVTLVPEHPTDVLEQAVSVAQDKLVLCYIRDVKNTLDIHSLVDGSLIRKIPVPIGTVSSISGSKKHSEVFYTFISFTSPGTIYRCDLSQSPIPDPEVFRQITIPGYDPSMFEEKQVFYLSKDGTRIPMFLVHKKVLEQNGKNPCLVYGYGGFNISLLPMFSTIRLVFVQYFNAVFASANIRGGGEYGEKWHDGGRLLNKQNSFDDFIAAGEYLIAEKYTNKSCLAIQGASNGGLLIGASVKPPYWLLEDPEYIYTVCVSDCGRWAVILPSKFCYNNLVYFSVLFQEEHFKNVLKYSPLHNIRVPEDQYPALLLLTASHDDRVVPLHSLKYIAQLQHVMRDNPKQENPLLIQVETKAGHGAGKPTNKRIEEQVDILCFLMNSMNLKFIE
notes: full-length ORF (no signal peptide identified), N-terminal FLAG and 10xHis tag, pNYCOMPS-LIC vector, E. coli BL21(DE3), soluble fraction, Ni-NTA, about 80 kDa, tags not reported cut
Consider B1, for which the Km came out at 211 ± 53 µM.
